Values quoted from earlier work in paper PMC5368065.
pKd: −log10 of the molar value.

How the values were obtained:
[1] = molecular target: MLL1 (Homo sapiens) (UniProt Q03164)
[2] = molecular target: MLL1 MBM1-MBM2 (Homo sapiens) (UniProt Q03164)

Substance: Menin (from UniProt O00255)
- pKd [1]: 8.00
- pKd [2]: 8.00
